We go through 13 molecules from patent publication US7183387 (Genentech, dated 2007).

For test [1], the target named is T1, human neonatal Fc receptor (FcRn), biotinylated (human, UniProt P55899 24-297; P61769 21-119, biotinylated (biotin-X-NHS)).
T1 construct: captured on streptavidin plates
As to the kind of experiment: FcRn ELISA, pH 6.0.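 Note: Streptavidin-captured FcRn plates, IgG variants titrated 2 h at pH 6.0, peroxidase anti-human IgG read at 450 nm, variant over standard concentration at the standard curve mid-point absorbance.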

Test [2] addresses T2, human FcγRIA α subunit extracellular domain-His6-GST fusion (human, UniProt P12314 16-292).
T2 construct: extracellular domain; also called GST-FcγRIA; CD64; not shown: glutathione S transferase (GST)
As to the kind of experiment: FcγRI ELISA and THP-1 cells, averaged.

Test [3] concerns the target T3, human FcγRIIA-Arg131 α subunit extracellular domain-His6-GST fusion (human, UniProt P12318 34-217).
T3 construct: extracellular domain; also called FcγRIIA-R131; not shown: glutathione S transferase (GST)
T3 sequence: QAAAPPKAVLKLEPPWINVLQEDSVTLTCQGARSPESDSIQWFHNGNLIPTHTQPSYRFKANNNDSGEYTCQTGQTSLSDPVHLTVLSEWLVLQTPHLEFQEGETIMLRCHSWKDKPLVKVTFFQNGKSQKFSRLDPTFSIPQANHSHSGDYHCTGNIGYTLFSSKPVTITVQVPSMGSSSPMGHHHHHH
Briefly: hexamer ELISA.

Test [4] concerns the target T4, human FcγRIIB α subunit extracellular domain-His6-GST fusion (human, UniProt P31994 43-217).
T4 construct: extracellular domain; also called CD32; not shown: glutathione S transferase (GST)
T4 sequence: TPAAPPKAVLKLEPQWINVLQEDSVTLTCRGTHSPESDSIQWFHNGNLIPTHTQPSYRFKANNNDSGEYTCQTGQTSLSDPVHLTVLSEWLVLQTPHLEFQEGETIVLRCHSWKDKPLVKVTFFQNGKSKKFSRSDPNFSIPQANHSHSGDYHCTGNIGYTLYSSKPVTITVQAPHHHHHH
As to the kind of experiment: hexamer ELISA.

Test [5] addresses T5, human FcγRIIIA-Phe158 α subunit extracellular domain-His6-GST fusion (human, UniProt P08637 17-208).
T5 construct: extracellular domain; also called FcγRIIIA-F158; CD16; not shown: glutathione S transferase (GST)
As to the kind of experiment: hexamer ELISA.

T2 sequence (P12314 other isoform, or with tags, fused parts or gaps): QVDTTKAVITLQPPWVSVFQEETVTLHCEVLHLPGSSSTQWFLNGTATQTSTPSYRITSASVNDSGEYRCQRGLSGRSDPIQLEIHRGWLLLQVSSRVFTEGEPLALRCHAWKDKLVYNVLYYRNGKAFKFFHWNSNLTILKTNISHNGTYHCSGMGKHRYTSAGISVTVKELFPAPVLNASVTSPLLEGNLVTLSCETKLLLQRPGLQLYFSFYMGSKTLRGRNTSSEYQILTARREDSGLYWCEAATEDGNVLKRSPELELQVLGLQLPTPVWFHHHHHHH
T1 sequence (P55899 24-297 limits assumed, chain 1 of 2): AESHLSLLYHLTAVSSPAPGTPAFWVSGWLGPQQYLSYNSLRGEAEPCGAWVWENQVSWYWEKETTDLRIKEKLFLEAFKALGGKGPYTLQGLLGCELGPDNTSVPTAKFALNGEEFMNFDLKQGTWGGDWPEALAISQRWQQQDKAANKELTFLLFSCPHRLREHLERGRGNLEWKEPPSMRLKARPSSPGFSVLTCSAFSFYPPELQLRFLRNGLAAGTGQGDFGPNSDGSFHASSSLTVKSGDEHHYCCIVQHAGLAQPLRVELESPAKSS
T1 sequence (P61769 21-119 limits assumed, chain 2 of 2): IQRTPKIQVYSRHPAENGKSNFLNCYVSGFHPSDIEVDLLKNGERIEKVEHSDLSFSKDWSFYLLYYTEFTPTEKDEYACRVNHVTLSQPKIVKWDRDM
T5 sequence (P08637 other isoform, or with tags, fused parts or gaps): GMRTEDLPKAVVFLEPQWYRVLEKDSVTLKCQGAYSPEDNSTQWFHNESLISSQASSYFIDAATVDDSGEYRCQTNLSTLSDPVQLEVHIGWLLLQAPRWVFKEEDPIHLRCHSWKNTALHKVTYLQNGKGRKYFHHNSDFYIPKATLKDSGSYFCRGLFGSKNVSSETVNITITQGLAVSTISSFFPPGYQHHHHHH

B1: anti-IgE E27 IgG1 Asp312Ala (antibody)
heavy: not shown
light: DIQLTQSPSSLSASVGDRVTITCRASKPVDGEGDSYLNWYQQKPGKAPKLLIYAASYLESGVPSRFSGSGSGTDFTLTISSLQPEDFATYYCQQSHEDPYTFGQGTKVEIKRTVAAPSVFIFPPSDEQLKSGTASVVCLLNNFYPREAKVQWKVDNALQSGNSQESVTEQDSKDSTYSLSSTLTLSKADYEKHKVYACEVTHQGLSSPVTKSFNRGEC
In the case of B1, the “ratio to native IgG1” value in test [1] is 1.5 ratio; in test [2] it was 1.01 ratio; in test [3], 1.2 ratio; in test [4], 1.19 ratio; in test [5] it was 1.23 ratio.

B2: anti-IgE E27 IgG1 Asp376Ala (antibody)
heavy: not shown
light: DIQLTQSPSSLSASVGDRVTITCRASKPVDGEGDSYLNWYQQKPGKAPKLLIYAASYLESGVPSRFSGSGSGTDFTLTISSLQPEDFATYYCQQSHEDPYTFGQGTKVEIKRTVAAPSVFIFPPSDEQLKSGTASVVCLLNNFYPREAKVQWKVDNALQSGNSQESVTEQDSKDSTYSLSSTLTLSKADYEKHKVYACEVTHQGLSSPVTKSFNRGEC
B2: the “ratio to native IgG1” value turned out to be 1.45 ratio in test [1]; 1 ratio in test [2]; 0.8 ratio in test [3]; 0.68 ratio in test [4]; 0.55 ratio in test [5].

B3: anti-IgE E27 IgG1 Glu333Ala (antibody)
heavy: not shown
light: DIQLTQSPSSLSASVGDRVTITCRASKPVDGEGDSYLNWYQQKPGKAPKLLIYAASYLESGVPSRFSGSGSGTDFTLTISSLQPEDFATYYCQQSHEDPYTFGQGTKVEIKRTVAAPSVFIFPPSDEQLKSGTASVVCLLNNFYPREAKVQWKVDNALQSGNSQESVTEQDSKDSTYSLSSTLTLSKADYEKHKVYACEVTHQGLSSPVTKSFNRGEC
notes: also called G54 E333A
As for B3, the “ratio to native IgG1” value was found to be 1.03 ratio in test [1]; 0.98 ratio in test [2]; 0.92 ratio in test [3]; 0.76 ratio in test [4]; 1.27 ratio in test [5].

B4: anti-IgE E27 IgG1 His285Ala (antibody)
heavy: not shown
light: DIQLTQSPSSLSASVGDRVTITCRASKPVDGEGDSYLNWYQQKPGKAPKLLIYAASYLESGVPSRFSGSGSGTDFTLTISSLQPEDFATYYCQQSHEDPYTFGQGTKVEIKRTVAAPSVFIFPPSDEQLKSGTASVVCLLNNFYPREAKVQWKVDNALQSGNSQESVTEQDSKDSTYSLSSTLTLSKADYEKHKVYACEVTHQGLSSPVTKSFNRGEC
Take B4: the “ratio to native IgG1” value in test [1] came to 0.85 ratio; in test [2] it was 0.96 ratio; in test [3], 1.26 ratio; in test [4] it was 1.23 ratio; in test [5], 0.87 ratio.

B5: anti-IgE E27 IgG1 His268Ala (antibody)
heavy: not shown
light: DIQLTQSPSSLSASVGDRVTITCRASKPVDGEGDSYLNWYQQKPGKAPKLLIYAASYLESGVPSRFSGSGSGTDFTLTISSLQPEDFATYYCQQSHEDPYTFGQGTKVEIKRTVAAPSVFIFPPSDEQLKSGTASVVCLLNNFYPREAKVQWKVDNALQSGNSQESVTEQDSKDSTYSLSSTLTLSKADYEKHKVYACEVTHQGLSSPVTKSFNRGEC
notes: also called H281A (268 in EU numbering); G16 H268A
Turning to B5, the “ratio to native IgG1” value in test [1] was 1.02 ratio; in test [2] it was 1.09 ratio; in test [3], 1.21 ratio; in test [4], 1.44 ratio; in test [5], 0.54 ratio.

B6: anti-IgE E27 IgG1 Glu269Ala (antibody)
heavy: not shown
light: DIQLTQSPSSLSASVGDRVTITCRASKPVDGEGDSYLNWYQQKPGKAPKLLIYAASYLESGVPSRFSGSGSGTDFTLTISSLQPEDFATYYCQQSHEDPYTFGQGTKVEIKRTVAAPSVFIFPPSDEQLKSGTASVVCLLNNFYPREAKVQWKVDNALQSGNSQESVTEQDSKDSTYSLSSTLTLSKADYEKHKVYACEVTHQGLSSPVTKSFNRGEC
notes: also called E269(282)A
Take B6: the “ratio to native IgG1” value was found to be 1.05 ratio in test [1]; 0.61 ratio in test [2]; 0.65 ratio in test [3]; 0.75 ratio in test [4]; 0.45 ratio in test [5].

B7: anti-IgE E27 IgG1 Glu258Ala (antibody)
heavy: not shown
light: DIQLTQSPSSLSASVGDRVTITCRASKPVDGEGDSYLNWYQQKPGKAPKLLIYAASYLESGVPSRFSGSGSGTDFTLTISSLQPEDFATYYCQQSHEDPYTFGQGTKVEIKRTVAAPSVFIFPPSDEQLKSGTASVVCLLNNFYPREAKVQWKVDNALQSGNSQESVTEQDSKDSTYSLSSTLTLSKADYEKHKVYACEVTHQGLSSPVTKSFNRGEC
As for B7, the “ratio to native IgG1” value in test [1] was determined as 1.18 ratio; in test [2] it was 1.18 ratio; in test [3] it was 1.33 ratio; in test [4], 1.65 ratio; in test [5] it was 1.12 ratio.

B8: anti-IgE E27 IgG1 Gln295Ala (antibody)
heavy: not shown
light: DIQLTQSPSSLSASVGDRVTITCRASKPVDGEGDSYLNWYQQKPGKAPKLLIYAASYLESGVPSRFSGSGSGTDFTLTISSLQPEDFATYYCQQSHEDPYTFGQGTKVEIKRTVAAPSVFIFPPSDEQLKSGTASVVCLLNNFYPREAKVQWKVDNALQSGNSQESVTEQDSKDSTYSLSSTLTLSKADYEKHKVYACEVTHQGLSSPVTKSFNRGEC
notes: also called Q295(312)A
Turning to B8, the “ratio to native IgG1” value in test [1] amounted to 0.79 ratio; in test [2] it was 1 ratio; in test [3] it was 0.62 ratio; in test [4], 0.5 ratio; in test [5], 0.25 ratio.

B9: anti-IgE E27 IgG1 Glu272Ala (antibody)
heavy: not shown
light: DIQLTQSPSSLSASVGDRVTITCRASKPVDGEGDSYLNWYQQKPGKAPKLLIYAASYLESGVPSRFSGSGSGTDFTLTISSLQPEDFATYYCQQSHEDPYTFGQGTKVEIKRTVAAPSVFIFPPSDEQLKSGTASVVCLLNNFYPREAKVQWKVDNALQSGNSQESVTEQDSKDSTYSLSSTLTLSKADYEKHKVYACEVTHQGLSSPVTKSFNRGEC
In the case of B9, the “ratio to native IgG1” value in test [1] was 1.34 ratio; in test [2], 1.05 ratio; in test [3] it was 1.23 ratio; in test [4], 1.53 ratio; in test [5] it was 0.8 ratio.

B10: anti-IgE E27 IgG1 Glu430Ala (antibody)
heavy: not shown
light: DIQLTQSPSSLSASVGDRVTITCRASKPVDGEGDSYLNWYQQKPGKAPKLLIYAASYLESGVPSRFSGSGSGTDFTLTISSLQPEDFATYYCQQSHEDPYTFGQGTKVEIKRTVAAPSVFIFPPSDEQLKSGTASVVCLLNNFYPREAKVQWKVDNALQSGNSQESVTEQDSKDSTYSLSSTLTLSKADYEKHKVYACEVTHQGLSSPVTKSFNRGEC
For the molecule B10, the “ratio to native IgG1” value is 0.93 ratio in test [1]; 1.05 ratio in test [2]; 1.24 ratio in test [3]; 1.28 ratio in test [4]; 1.2 ratio in test [5].

B11: anti-IgE E27 IgG1 Gln311Ala (antibody)
heavy: not shown
light: DIQLTQSPSSLSASVGDRVTITCRASKPVDGEGDSYLNWYQQKPGKAPKLLIYAASYLESGVPSRFSGSGSGTDFTLTISSLQPEDFATYYCQQSHEDPYTFGQGTKVEIKRTVAAPSVFIFPPSDEQLKSGTASVVCLLNNFYPREAKVQWKVDNALQSGNSQESVTEQDSKDSTYSLSSTLTLSKADYEKHKVYACEVTHQGLSSPVTKSFNRGEC
For B11, the “ratio to native IgG1” value in test [1] was 1.62 ratio; in test [2] it was 0.93 ratio; in test [3] it was 1.11 ratio; in test [4], 1.19 ratio; in test [5], 0.92 ratio.

B12: anti-IgE E27 IgG1 Glu382Ala (antibody)
heavy: not shown
light: DIQLTQSPSSLSASVGDRVTITCRASKPVDGEGDSYLNWYQQKPGKAPKLLIYAASYLESGVPSRFSGSGSGTDFTLTISSLQPEDFATYYCQQSHEDPYTFGQGTKVEIKRTVAAPSVFIFPPSDEQLKSGTASVVCLLNNFYPREAKVQWKVDNALQSGNSQESVTEQDSKDSTYSLSSTLTLSKADYEKHKVYACEVTHQGLSSPVTKSFNRGEC
In the case of B12, the “ratio to native IgG1” value was 1.51 ratio in test [1]; 1.06 ratio in test [2]; 0.95 ratio in test [3]; 0.84 ratio in test [4]; 0.76 ratio in test [5].

B13: anti-IgE E27 IgG1 Gln362Ala (antibody)
heavy: not shown
light: DIQLTQSPSSLSASVGDRVTITCRASKPVDGEGDSYLNWYQQKPGKAPKLLIYAASYLESGVPSRFSGSGSGTDFTLTISSLQPEDFATYYCQQSHEDPYTFGQGTKVEIKRTVAAPSVFIFPPSDEQLKSGTASVVCLLNNFYPREAKVQWKVDNALQSGNSQESVTEQDSKDSTYSLSSTLTLSKADYEKHKVYACEVTHQGLSSPVTKSFNRGEC
notes: also called Gln362A1a
As for B13, the “ratio to native IgG1” value turned out to be 1.25 ratio in test [1]; 1 ratio in test [2]; 1.03 ratio in test [3]; 1.02 ratio in test [4]; 1.02 ratio in test [5].
